For this assay, the target named is recombinant prefusion F protein of RSV (rpF5), ectodomain fused with a T4 fibritin foldon trimerization domain (respiratory syncytial virus, subgroup A2 | bacteriophage T4) (UniProt P03420). The experiment in a line: SDS-PAGE under reducing and non-reducing conditions; 10% gel, Coomassie blue staining; band of approximately 195 kDa under non-reducing and approximately 65 kDa under reducing conditions.

Broadly, the stoichiometry N is a count of units in the complex or per binding partner. Regarding “recombinant prefusion F protein of RSV (rpF5), ectodomain fused with a T4 fibritin foldon trimerization domain (from UniProt P03420 26-513) (domain or fragment)”, the stoichiometry N was 3.
